In assay [1] the target is T1, Human CD3ε stalk-Fc(knob)-Avi/CD3δ stalk-Fc(hole) (human).
T1 construct: Heterodimer of CD3 delta and CD3 epsilon ectodomains fused to a human Fc domain with knob-into-hole modifications and C-terminal Avi-tag; also called human CD3ε/δ; CD3ε/δ
Briefly: SPR (Biacore T200, 25°C); TCB captured by anti-PG antibody on C1 chip, CD3ε/δ-Fc as analyte; 1:1 Langmuir fit. The source says:
(§1) For affinity measurements, TCB molecules were captured on a C1 sensorchip (GE Healthcare) surface with immobilized anti-Fc (P329G) IgG (an antibody that specifically binds human IgG₁ Fc (P329G); “anti-PG antibody”—see WO 2017/072210, incorporated herein by reference). The experimental setup is schematically depicted in FIG. 3. Capture IgG was coupled to the sensorchip surface by direct immobilization of around 400 resonance units (RU) using the standard amine coupling kit (GE Healthcare Life Sciences).
(§2) To analyze the interaction to CD3, TCB molecules were captured for 80 s at 25 nM with a flow rate of 10 μl/min. Human and cynomolgus CD3ε stalk-Fc(knob)-Avi/CD3δ stalk-Fc(hole) (CD3ε/δ, see SEQ ID NOs 24 and 25 (human) and SEQ ID NOs 26 and 27 (cynomolgus)) were passed at a concentration of 0.122-125 nM with a flow rate of 30 μl/min through the flow cells for 300 s. The dissociation was monitored for 800 s.
(§3) Kinetic constants were derived using the Biacore T200 Evaluation Software (GE Healthcare Life Sciences), to fit rate equations for 1:1 Langmuir binding by numerical integration. The half-life (t_{1/2}) of the interaction was calculated using the formula t_{1/2}=ln 2/koff.
In general terms: In SPR one partner is held on a chip, and binding of the other changes the refractive index at the surface.

In assay [2] the target is T2, Cynomolgus CD3ε stalk-Fc(knob)-Avi/CD3δ stalk-Fc(hole) (cynomolgus).
T2 construct: Heterodimeric Fc fusion, soluble analyte in SPR; also called cynomolgus CD3ε/δ
The assay is described as above.
Description: as §1, §2, §3

Assay [3] deals with T1, Human CD3ε stalk-Fc(knob)-Avi/CD3δ …. In words: SPR (Biacore T200, 25°C); TCB captured by anti-PG antibody on C1 chip, CD3ε/δ-Fc as analyte; t1/2 = ln 2/koff.
Description: as §1, §2, §3

Assay [4] addresses T2, Cynomolgus CD3ε stalk-Fc(knob)-Avi/CD3δ …. The description is as above.
Description: as §1, §2, §3

Assay [5] has as its target T1, Human CD3ε stalk-Fc(knob)-Avi/CD3δ …. In words: SPR (Biacore T200); biotinylated human CD3ε/δ on SA chip, TCB injected at 2 µg/ml; normalised to anti-huIgG capture, relative to the non-stressed sample. On the procedure:
In order to assess the effect of the deamidation site removal and its effect on the stability of the antibodies, the anti-CD3 antibodies (in TCB format) were incubated for 14 days at 37° C., pH 7.4 and at 40° C., pH 6 and further analyzed by SPR for their binding capability to human CD3ε/δ. Samples stored at −80° C. pH 6 were used as reference. The reference samples and the samples stressed at 40° C. were in 20 mM His, 140 mM NaCl, pH 6.0, and the samples stressed at 37° C. in PBS, pH 7.4, all at a concentration of 1.0 mg/ml. After the stress period (14 days) samples in PBS were dialyzed back to 20 mM His, 140 mM NaCl, pH 6.0 for further analysis.
All SPR experiments were performed on a Biacore T200 instrument (GE Healthcare) at 25° C. with HBS-P+(10 mM HEPES, 150 mM NaCl pH 7.4, 0.05% Surfactant P20) as running and dilution buffer. Biotinylated human CD3ε/δ (see Example 3, SEQ ID NOs 24 and 25) as well as biotinylated anti-huIgG (Capture Select, Thermo Scientific, #7103262100) were immobilized on a Series S Sensor Chip SA (GE Healthcare, #29104992), resulting in surface densities of at least 1000 resonance units (RU). Anti-CD3 antibodies with a concentration of 2 μg/ml were injected for 30 s at a flow rate of 5 μl/min, and dissociation was monitored for 120 s. The surface was regenerated by injecting 10 mM glycine pH 1.5 for 60 s. Bulk refractive index differences were corrected by subtracting blank injections and by subtracting the response obtained from a blank control flow cell. For evaluation, the binding response 5 seconds after injection end was taken. To normalize the binding signal, the CD3 binding was divided by the anti-huIgG response (the signal (RU) obtained upon capture of the CD3 antibody on the immobilized anti-huIgG antibody). The relative binding activity was calculated by referencing each temperature stressed sample to the corresponding, non-stressed sample.

Assay [6] shares this target. Briefly: SPR (Biacore T200, 25°C); monovalent IgG captured by anti-PG antibody on C1 chip, CD3ε/δ-Fc as analyte; t1/2 = ln 2/koff. On the procedure: as §3
(§4) SPR experiments were performed as described in Example 3, with the monovalent IgG molecules prepared in Example 6.
(§5) To analyze the interaction to CD3, IgG molecules were captured for 240 s at 50 nM with a flow rate of 5 μl/min. Human and cynomolgus CD3ε stalk-Fc(knob)-Avi/CD3δ-stalk-Fc(hole) were passed at a concentration of 0.061-250 nM with a flow rate of 30 μl/min through the flow cells for 300 s. The dissociation was monitored for 800 s.

Assay [7] has the same target. Briefly: SPR (Biacore T200, 25°C); monovalent IgG captured by anti-PG antibody on C1 chip, CD3ε/δ-Fc as analyte; 1:1 Langmuir fit; triplicates. On the procedure: as §3, §4, §5

B1: TYRP1 T-cell bispecific antibody (TCB) comprising anti-CD3 antibody CD3opt (bispecific antibody, human IgG1, kappa, L234A L235A)
heavy 1: not shown
heavy 2: QVQLVQSGAEVKKPGASVKVSCKASGFNIKDYFLHWVRQAPGQGLEWMGWINPDNGNTVYAQKFQGRVTMTADTSTSTVYMELSSLRSEDTAVYYCTRRDYTYEKAALDYWGQGTLVTVSSASTKGPSVFPLAPSSKSTSGGTAALGCLVEDYFPEPVTVSWNSGALTSGVHTFPAVLQSSGLYSLSSVVTVPSSSLGTQTYICNVNHKPSNTKVDEKVEPKSCDKTHTCPPCPAPEAAGGPSVFLFPPKPKDTLMISRTPEVTCVVVDVSHEDPEVKFNWYVDGVEVHNAKTKPREEQYNSTYRVVSVLTVLHQDWLNGKEYKCKVSNKALGAPIEKTISKAKGQPREPQVCTLPPSRDELTKNQVSLSCAVKGFYPSDIAVEWESNGQPENNYKTTPPVLDSDGSFFLVSKLTVDKSRWQQGNVFSCSVMHEALHNHYTQKSLSLSP
light 1: DIQMTQSPSSLSASVGDRVTITCRASGNIYNYLAWYQQKPGKVPKLLIYDAKTLADGVPSRFSGSGSGTDFTLTISSLQPEDVATYYCQHFWSLPFTFGQGTKLEIKRTVAAPSVFIFPPSDRKLKSGTASVVCLLNNFYPREAKVQWKVDNALQSGNSQESVTEQDSKDSTYSLSSTLTLSKADYEKHKVYACEVTHQGLSSPVTKSFNRGEC
light 2: EVQLLESGGGLVQPGGSLRLSCAASGFQFSSYAMNWVRQAPGKGLEWVSRIRSKYNNYATYYADSVKGRFTISRDDSKNTLYLQMNSLRAEDTAVYYCVRHTTFPSSYVSYYGYWGQGTLVTVSSASVAAPSVFIFPPSDEQLKSGTASVVCLLNNFYPREAKVQWKVDNALQSGNSQESVTEQDSKDSTYSLSSTLTLSKADYEKHKVYACEVTHQGLSSPVTKSFNRGEC
notes: 2+1 IgG CrossFab, inverted, with charge modifications; human IgG1 Fc with knob-into-hole and P329G LALA; also called CD3opt (in TCB format)
As to B1, in assay [1], the Kd (usually the concentration at which binding is half-saturated) stood at 4.3 nM; the koff – broadly, a measure of how fast the partners let go of each other – was determined as 0.00621 s⁻¹; the kon – broadly, the second-order rate constant of association – amounted to 1.44e+06 M⁻¹ s⁻¹. Also, in assay [2], the Kd stood at 0.86 nM, the koff was 0.0023 s⁻¹ and the kon stood at 2.67e+06 M⁻¹ s⁻¹. In assay [3], the t1/2 worked out at 1.86 min. Moreover, in assay [4], the t1/2 was found to be 5.02 min. Besides, in assay [5], the “binding activity [%], 2 weeks at pH 6.0/40°C” value turned out to be 97% and the “binding activity [%], 2 weeks at pH 7.4/37°C” value is 92%.

B2: TYRP1 T-cell bispecific antibody (TCB) comprising anti-CD3 antibody CD3orig (bispecific antibody, human IgG1, kappa, L234A L235A)
heavy 1: not shown
heavy 2: QVQLVQSGAEVKKPGASVKVSCKASGFNIKDYFLHWVRQAPGQGLEWMGWINPDNGNTVYAQKFQGRVTMTADTSTSTVYMELSSLRSEDTAVYYCTRRDYTYEKAALDYWGQGTLVTVSSASTKGPSVFPLAPSSKSTSGGTAALGCLVEDYFPEPVTVSWNSGALTSGVHTFPAVLQSSGLYSLSSVVTVPSSSLGTQTYICNVNHKPSNTKVDEKVEPKSCDKTHTCPPCPAPEAAGGPSVFLFPPKPKDTLMISRTPEVTCVVVDVSHEDPEVKFNWYVDGVEVHNAKTKPREEQYNSTYRVVSVLTVLHQDWLNGKEYKCKVSNKALGAPIEKTISKAKGQPREPQVCTLPPSRDELTKNQVSLSCAVKGFYPSDIAVEWESNGQPENNYKTTPPVLDSDGSFFLVSKLTVDKSRWQQGNVFSCSVMHEALHNHYTQKSLSLSP
light 1: DIQMTQSPSSLSASVGDRVTITCRASGNIYNYLAWYQQKPGKVPKLLIYDAKTLADGVPSRFSGSGSGTDFTLTISSLQPEDVATYYCQHFWSLPFTFGQGTKLEIKRTVAAPSVFIFPPSDRKLKSGTASVVCLLNNFYPREAKVQWKVDNALQSGNSQESVTEQDSKDSTYSLSSTLTLSKADYEKHKVYACEVTHQGLSSPVTKSFNRGEC
light 2: EVQLLESGGGLVQPGGSLRLSCAASGFTFSTYAMNWVRQAPGKGLEWVSRIRSKYNNYATYYADSVKGRFTISRDDSKNTLYLQMNSLRAEDTAVYYCVRHGNFGNSYVSWFAYWGQGTLVTVSSASVAAPSVFIFPPSDEQLKSGTASVVCLLNNFYPREAKVQWKVDNALQSGNSQESVTEQDSKDSTYSLSSTLTLSKADYEKHKVYACEVTHQGLSSPVTKSFNRGEC
notes: 2+1 IgG CrossFab, inverted, with charge modifications; human IgG1 Fc with knob-into-hole and P329G LALA; also called CD3orig (in TCB format)
In assay [1], B2 gave an equilibrium dissociation constant (Kd) of 6.54 nM, an off-rate constant (koff) of 0.00338 s⁻¹ and an on-rate (kon) of 517000 M⁻¹ s⁻¹. This molecule showed a t1/2 in assay [3] of 3.42 min. Besides, in assay [5], the “binding activity [%], 2 weeks at pH 6.0/40°C” value came out at 95% and the “binding activity [%], 2 weeks at pH 7.4/37°C” value is 65%.

B3: anti-CD3 antibody CD3orig in monovalent human IgG1 format (antibody)
heavy: not shown
chain: DKTHTCPPCPAPEAAGGPSVFLFPPKPKDTLMISRTPEVTCVVVDVSHEDPEVKFNWYVDGVEVHNAKTKPREEQYNSTYRVVSVLTVLHQDWLNGKEYKCKVSNKALGAPIEKTISKAKGQPREPQVCTLPPSRDELTKNQVSLSCAVKGFYPSDIAVEWESNGQPENNYKTTPPVLDSDGSFFLVSKLTVDKSRWQQGNVFSCSVMHEALHNHYTQKSLSLSP
light: EVQLLESGGGLVQPGGSLRLSCAASGFTFSTYAMNWVRQAPGKGLEWVSRIRSKYNNYATYYADSVKGRFTISRDDSKNTLYLQMNSLRAEDTAVYYCVRHGNFGNSYVSWFAYWGQGTLVTVSSASVAAPSVFIFPPSDEQLKSGTASVVCLLNNFYPREAKVQWKVDNALQSGNSQESVTEQDSKDSTYSLSSTLTLSKADYEKHKVYACEVTHQGLSSPVTKSFNRGEC
notes: also called CD3orig (in monovalent IgG format)
In assay [6], B3 displayed a t1/2 of 3.98 min. Moreover, in assay [7], binding was characterised by a dissociation constant (Kd) of 4.94 nM, the koff is 0.0029 s⁻¹ and the kon was determined as 587000 M⁻¹ s⁻¹.

(Values after patent US20240018240A1 (Hoffmann-La Roche, published 2024).)
